Measured values published in US6500674.

Tests used:
[1] = molecular target: phosphorylated tau prepared by incubating recombinant non-phosphorylated tau with a rat brain extract (UniProt P10636); assay: sandwich ELISA on CSF spiked with phosphorylated and non-phosphorylated tau, no amplification
[2] = molecular target: phosphorylated tau prepared by incubating recombinant non-phosphorylated tau with a rat brain extract (UniProt P10636); assay: sandwich ELISA, antibody coated, CSF spiked with tau, detection with biotinylated AT120 and HT7
[3] = molecular target: recombinant non-phosphorylated tau (UniProt P10636); assay: as above
[4] = molecular target: phosphorylated tau prepared by incubating recombinant non-phosphorylated tau with a rat brain extract (UniProt P10636); assay: sandwich ELISA, antibody coated, CSF without added tau (background), detection with biotinylated AT120 and HT7
[5] = molecular target: recombinant non-phosphorylated tau (UniProt P10636); assay: as above

Question: With “monoclonal antibody AT180 secreted by the hybridoma deposited at ECACC on Dec. 22, 1992 under No. 92122204” as the substance, how does the detection limit in ELISA [1] read?
Answer: The detection limit in ELISA was 10 pg/mL.

Question: And the ELISA signal at 0.2 pg/ml tau [2]?
Answer: The ELISA signal at 0.2 pg/ml tau was 95.

Question: And the ELISA signal at 1 pg/ml tau [2]?
Answer: The ELISA signal at 1 pg/ml tau was 97.

Question: And the ELISA signal at 5 pg/ml tau [2]?
Answer: Its ELISA signal at 5 pg/ml tau is 106.

Question: And the ELISA signal at 25 pg/ml tau [2]?
Answer: Its ELISA signal at 25 pg/ml tau is 105.

Question: What about the ELISA signal at 100 pg/ml tau [2] of the same substance?
Answer: Its ELISA signal at 100 pg/ml tau is 125.

Question: And the ELISA signal at 500 pg/ml tau [2]?
Answer: Its ELISA signal at 500 pg/ml tau is 179.

Question: What about the ELISA signal at 2000 pg/ml tau [2] of the same substance?
Answer: Its ELISA signal at 2000 pg/ml tau is 449.

Question: What about the ELISA signal at 0.2 pg/ml tau [3] of the same substance?
Answer: Its ELISA signal at 0.2 pg/ml tau is 85.

Question: And the ELISA signal at 1 pg/ml tau [3]?
Answer: The ELISA signal at 1 pg/ml tau was 87.

Question: What about the ELISA signal at 5 pg/ml tau [3] of the same substance?
Answer: The ELISA signal at 5 pg/ml tau was 90.

Question: What about the ELISA signal at 25 pg/ml tau [3] of the same substance?
Answer: Its ELISA signal at 25 pg/ml tau is 85.

Question: What about the ELISA signal at 100 pg/ml tau [3] of the same substance?
Answer: Its ELISA signal at 100 pg/ml tau is 94.

Question: And the ELISA signal at 500 pg/ml tau [3]?
Answer: The ELISA signal at 500 pg/ml tau was 92.

Question: What about the ELISA signal at 2000 pg/ml tau [3] of the same substance?
Answer: Its ELISA signal at 2000 pg/ml tau is 95.

Question: And the ELISA signal at 0 pg/ml tau (blank) [4]?
Answer: The ELISA signal at 0 pg/ml tau (blank) was 94.

Question: What about the ELISA signal at 0 pg/ml tau (blank) [5] of the same substance?
Answer: Its ELISA signal at 0 pg/ml tau (blank) is 89.

Question: Which results are given for “monoclonal antibody AT270 secreted by the hybridoma deposited at ECACC on Jul. 7, 1993 under No. 93070774”?
Answer: detection limit in ELISA [1]: 10 pg/mL; ELISA signal at 0.2 pg/ml tau [2]: 89; ELISA signal at 1 pg/ml tau [2]: 83; ELISA signal at 5 pg/ml tau [2]: 86; ELISA signal at 25 pg/ml tau [2]: 113; ELISA signal at 100 pg/ml tau [2]: 158; ELISA signal at 500 pg/ml tau [2]: 1040; ELISA signal at 2000 pg/ml tau [2]: 2650; ELISA signal at 0.2 pg/ml tau [3]: 91; ELISA signal at 1 pg/ml tau [3]: 90; ELISA signal at 5 pg/ml tau [3]: 87; ELISA signal at 25 pg/ml tau [3]: 92; ELISA signal at 100 pg/ml tau [3]: 96; ELISA signal at 500 pg/ml tau [3]: 94; ELISA signal at 2000 pg/ml tau [3]: 98; ELISA signal at 0 pg/ml tau (blank) [4]: 94; ELISA signal at 0 pg/ml tau (blank) [5]: 92
